Biological target: H3K4Me3 peptide
Test: ITC

Row | Kd [nM] | Substance
1 | 600 | MORC3 CW domain (domain or fragment)
2 | 1100 | recombinant SPIN1 (from UniProt Q9Y657 1-262) (natural protein)

Source: paper PMC3520067
